Key:
[1] = target: T1, ALK6; assay: solid-phase binding assay, half max as printed (FIG. 9)
T1 construct: Soluble ALK6 titrated at 3.125-100 nM over immobilized MuSK constructs; That is inferred from the anti-human IgG Fc detection antibody; also called BMPR1b; BMPR1B

[2] = target: T1, ALK6; assay: solid-phase binding assay, ALK6 at 100 nM, FL ECD against ΔIg2 (FIG. 7)

T1 sequence (O00238 whole entry, the tested form may be a part): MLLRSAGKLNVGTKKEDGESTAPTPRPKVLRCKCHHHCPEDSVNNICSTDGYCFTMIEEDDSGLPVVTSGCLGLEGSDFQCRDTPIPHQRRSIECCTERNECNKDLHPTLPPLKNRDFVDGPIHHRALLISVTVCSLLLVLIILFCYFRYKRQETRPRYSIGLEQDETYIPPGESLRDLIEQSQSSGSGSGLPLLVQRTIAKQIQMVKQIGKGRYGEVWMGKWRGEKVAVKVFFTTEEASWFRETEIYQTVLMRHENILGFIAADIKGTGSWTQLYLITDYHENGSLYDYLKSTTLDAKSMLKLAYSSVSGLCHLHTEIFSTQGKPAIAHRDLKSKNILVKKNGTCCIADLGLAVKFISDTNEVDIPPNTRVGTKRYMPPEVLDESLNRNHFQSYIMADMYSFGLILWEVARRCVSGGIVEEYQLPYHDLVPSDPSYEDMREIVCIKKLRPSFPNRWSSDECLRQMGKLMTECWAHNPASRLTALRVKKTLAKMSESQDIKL

B1: full-length ectodomain (FL ECD) of MuSK, His-tagged (receptor)
chain: EKLPKAPVITTPLETVDALVEEVATFMCAVESYPQPEISWTRNKILIKLFDTRYSIRENGQLLTILSVEDSDDGIYCCTANNGVGGAVESCGALQVKMKPKITRPPINVKIIEGLKAVLPCTTMGNPKPSVSWIKGDSALRENSRIAVLESGSLRIHNVQKEDAGQYRCVAKNSLGTAYSKLVKLEVEVFARILRAPESHNVTFGSFVTLRCTAIGMPVPTISWIENGNAVSSGSIQENVKDRVIDSRLQLFITKPGLYTCIATNKHGEKFSTAKAAATVSIAEWSKSQKESKGYCAQYRGEVCDAVLVKDSLVFFNTSYPDPEEAQELLIHTAWNELKAVSPLCRPAAEALLCNHLFQECSPGVLPTPMPICREYCLAVKELFCAKEWLAMEGKTHRGLYRSGMHFLPVPECSKLPSMHQDPTACTRLPYLDYKKENITTFPSITSSKPSVDIPNLPASTSSFAVSPAYSMT
[1]
  EC50: ~0.5 nM
[2]
  fold increase in absorbance against ΔIg2 MuSK: 6.6 fold

Reference: patent US20240175869A1 (BROWN UNIVERSITY, published 2024)
